Results from patent publication US20240092889A1 (Chugai, published 2024).
Where a chain is given by its changes, count along the chain named. Names and notes keep the numbering of the source.

T1: recombinant human C1r2s2 tetramer (human, UniProt P09871 16-688; P00736 18-705)
T1 construct: C1s and C1r co-expressed in HEK293/FreeStyle 293-F and purified from conditioned medium
T1 chain 1: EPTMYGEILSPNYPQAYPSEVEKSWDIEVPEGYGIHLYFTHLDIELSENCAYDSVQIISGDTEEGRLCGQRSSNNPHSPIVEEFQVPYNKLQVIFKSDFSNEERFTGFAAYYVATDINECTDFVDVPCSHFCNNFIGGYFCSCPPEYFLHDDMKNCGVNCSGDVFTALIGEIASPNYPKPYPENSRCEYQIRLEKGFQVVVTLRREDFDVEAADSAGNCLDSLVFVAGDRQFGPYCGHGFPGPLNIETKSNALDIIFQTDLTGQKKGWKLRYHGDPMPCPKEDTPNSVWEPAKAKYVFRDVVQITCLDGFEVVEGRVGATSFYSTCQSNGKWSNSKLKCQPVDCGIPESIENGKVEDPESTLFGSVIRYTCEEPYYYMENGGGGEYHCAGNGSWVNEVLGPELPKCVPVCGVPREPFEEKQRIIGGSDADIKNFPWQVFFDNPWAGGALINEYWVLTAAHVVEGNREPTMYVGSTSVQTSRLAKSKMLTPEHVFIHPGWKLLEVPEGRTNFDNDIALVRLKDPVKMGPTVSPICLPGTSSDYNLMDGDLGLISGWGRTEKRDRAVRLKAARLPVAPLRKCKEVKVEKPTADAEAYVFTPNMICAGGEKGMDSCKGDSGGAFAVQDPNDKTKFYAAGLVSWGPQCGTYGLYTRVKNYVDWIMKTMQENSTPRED
T1 chain 2: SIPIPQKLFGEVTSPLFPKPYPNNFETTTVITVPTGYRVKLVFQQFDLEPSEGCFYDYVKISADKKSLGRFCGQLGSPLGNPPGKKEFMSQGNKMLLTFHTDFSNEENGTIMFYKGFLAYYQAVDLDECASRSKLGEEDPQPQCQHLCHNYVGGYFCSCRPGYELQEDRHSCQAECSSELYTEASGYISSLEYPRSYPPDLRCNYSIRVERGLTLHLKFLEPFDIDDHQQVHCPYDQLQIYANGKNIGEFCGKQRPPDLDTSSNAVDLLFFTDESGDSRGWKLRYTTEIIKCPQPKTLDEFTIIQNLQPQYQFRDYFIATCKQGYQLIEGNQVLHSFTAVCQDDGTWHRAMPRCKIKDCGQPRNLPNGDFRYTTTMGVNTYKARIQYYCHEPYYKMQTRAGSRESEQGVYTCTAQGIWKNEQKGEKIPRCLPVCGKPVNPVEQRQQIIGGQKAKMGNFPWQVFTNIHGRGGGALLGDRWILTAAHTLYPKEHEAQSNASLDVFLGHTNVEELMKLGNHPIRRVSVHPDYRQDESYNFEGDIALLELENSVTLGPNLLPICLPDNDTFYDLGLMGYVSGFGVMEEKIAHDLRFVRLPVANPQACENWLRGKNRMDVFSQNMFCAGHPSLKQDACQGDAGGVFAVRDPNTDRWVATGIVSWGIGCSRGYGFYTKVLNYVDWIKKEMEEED

B1: AL0553 (antibody, human IgG1, kappa, V domains shown)
VH: QVQLVESGGGVVQPGRSLRLSCAASGFTFSAYAMNWIRQPPGKGLEWIGLIYGSGSTFYASWAKGRVTISVDTSKNQFSLKLSSVTAADTAVYYCARGRSVNYNSDFHLWGQGTLVTVSS
VL: DIQMTQSPSSLSASVGDRVTITCQASQSLHDKKNLAWYQQKPGQPPKLLIYGASTLESGVPSRFSGSGSGTDFTLTISSLQPEDFATYYCQGEFSCSSADPNTFGQGTKVEIKR
notes: COS0637temp with VL C95dP (Kabat), already in the VL entry
B2: AL0752 (antibody, human IgG1, kappa, V domains shown)
VH: B1 VH
VL: B1 VL with C96V, P101A
notes: COS0637temp with VL C94V/C95dA (Kabat), already in the VL entry
B3: AL0750 (antibody, human IgG1, kappa, V domains shown)
VH: B1 VH
VL: B1 VL with C96M, P101L
notes: COS0637temp with VL C94M/C95dL (Kabat), already in the VL entry
B4: AL0738 (antibody, human IgG1, kappa, V domains shown)
VH: B1 VH
VL: B1 VL with C96L, P101L
notes: COS0637temp with VL C94L/C95dL (Kabat), already in the VL entry
B5: AL0746 (antibody, human IgG1, kappa, V domains shown)
VH: B1 VH
VL: B1 VL with C96R, P101Y
notes: COS0637temp with VL C94R/C95dY (Kabat), already in the VL entry
B6: AL0558 (antibody, human IgG1, kappa, V domains shown)
VH: B1 VH
VL: B1 VL with P101V
notes: COS0637temp with VL C95dV (Kabat), already in the VL entry
B7: AL0742 (antibody, human IgG1, kappa, V domains shown)
VH: B1 VH
VL: B1 VL with C96W, P101R
notes: COS0637temp with VL C94W/C95dR (Kabat), already in the VL entry
B8: AL0745 (antibody, human IgG1, kappa, V domains shown)
VH: B1 VH
VL: B1 VL with C96E, P101L
notes: COS0637temp with VL C94E/C95dL (Kabat), already in the VL entry
B9: AL0753 (antibody, human IgG1, kappa, V domains shown)
VH: B1 VH
VL: B1 VL with C96V, P101V
notes: COS0637temp with VL C94V/C95dV (Kabat), already in the VL entry
B10: AL0559 (antibody, human IgG1, kappa, V domains shown)
VH: B1 VH
VL: B1 VL with P101W
notes: COS0637temp with VL C95dW (Kabat), already in the VL entry
B11: AL0555 (antibody, human IgG1, kappa, V domains shown)
VH: B1 VH
VL: B1 VL with P101R
notes: COS0637temp with VL C95dR (Kabat), already in the VL entry
B12: AL0739 (antibody, human IgG1, kappa, V domains shown)
VH: B1 VH
VL: B1 VL with C96V, P101L
notes: COS0637temp with VL C94V/C95dL (Kabat), already in the VL entry
B13: AL0751 (antibody, human IgG1, kappa, V domains shown)
VH: B1 VH
VL: B1 VL with C96A, P101V
notes: COS0637temp with VL C94A/C95dV (Kabat), already in the VL entry
B14: AL0557 (antibody, human IgG1, kappa, V domains shown)
VH: B1 VH
VL: B1 VL with P101T
notes: COS0637temp with VL C95dT (Kabat), already in the VL entry
B15: AL0749 (antibody, human IgG1, kappa, V domains shown)
VH: B1 VH
VL: B1 VL with C96L, P101R
notes: COS0637temp with VL C94L/C95dR (Kabat), already in the VL entry
B16: AL0741 (antibody, human IgG1, kappa, V domains shown)
VH: B1 VH
VL: B1 VL with C96W, P101Q
notes: COS0637temp with VL C94W/C95dQ (Kabat), already in the VL entry
B17: AL0554 (antibody, human IgG1, kappa, V domains shown)
VH: B1 VH
VL: B1 VL with P101Q
notes: COS0637temp with VL C95dQ (Kabat), already in the VL entry
B18: AL0748 (antibody, human IgG1, kappa, V domains shown)
VH: B1 VH
VL: B1 VL with C96I, P101F
notes: COS0637temp with VL C94I/C95dF (Kabat), already in the VL entry
B19: AL0560 (antibody, human IgG1, kappa, V domains shown)
VH: B1 VH
VL: B1 VL with P101Y
notes: COS0637temp with VL C95dY (Kabat), already in the VL entry
B20: AL0556 (antibody, human IgG1, kappa, V domains shown)
VH: B1 VH
VL: B1 VL with P101S
notes: COS0637temp with VL C95dS (Kabat), already in the VL entry
B21: AL0747 (antibody, human IgG1, kappa, V domains shown)
VH: B1 VH
VL: B1 VL with C96M, P101R
notes: COS0637temp with VL C94M/C95dR (Kabat), already in the VL entry
B22: AL0736 (antibody, human IgG1, kappa, V domains shown)
VH: B1 VH
VL: B1 VL with C96R, P101L
notes: COS0637temp with VL C94R/C95dL (Kabat), already in the VL entry

Molecular target: T1, recombinant human C1r2s2 tetramer
Test: SPR (BIACORE), antibody captured by ProL, human C1r2s2 injected at 100 nM, pH 7.4, 37 C
Description: Analysis of interaction between antibody variants and the human C1r2s2 prepared as mentioned above was carried out at pH7.4, at 37 degrees C. using BIACORE® T200 instrument (GE Healthcare) or BIACORE® 4000 (GE Healthcare). ProL (BioVision) was immobilized onto a CM4 sensorchip using amine coupling kit (GE Healthcare) according to the recommended settings by GE Healthcare. Antibodies and analytes were diluted into the respective running buffers, ACES pH7.4 (20 mM ACES (N-(2-Acetamido)-2-aminoethanesulfonic acid), 150 mM NaCl, 1.2 mM CaCl2, 1 mg/ml bovine serum albumin (BSA), 1 mg/ml CMD (CM-Dextran sodium salt), 0.05% Tween® 20 (polysorbate 20), 0.005 w/v % NaN3). Each antibody was captured onto the sensor surface by ProL. Antibody capture levels were aimed at 200 resonance units (RU). Then, recombinant human C1r2s2 was injected at concentrations of 25 and 100 nM followed by dissociation at pH7.4. The surface was regenerated using 10 mM Glycine-HCl, pH1.5.

binding result | Binder
no binding (tested: 100 nM) | B1
no binding (tested: 100 nM) | B2
no binding (tested: 100 nM) | B3
no binding (tested: 100 nM) | B4
no binding (tested: 100 nM) | B5
no binding (tested: 100 nM) | B6
no binding (tested: 100 nM) | B7
no binding (tested: 100 nM) | B8
no binding (tested: 100 nM) | B9
no binding (tested: 100 nM) | B10
no binding (tested: 100 nM) | B11
no binding (tested: 100 nM) | B12
no binding (tested: 100 nM) | B13
no binding (tested: 100 nM) | B14
no binding (tested: 100 nM) | B15
no binding (tested: 100 nM) | B16
no binding (tested: 100 nM) | B17
no binding (tested: 100 nM) | B18
no binding (tested: 100 nM) | B19
no binding (tested: 100 nM) | B20
no binding (tested: 100 nM) | B21
no binding (tested: 100 nM) | B22
